Assay results reported in publication PMC7661038, “Dot1l interacts with Zc3h10 to activate Ucp1 and other thermogenic genes” (eLife, 2020).

Target: T1, Flag-Zc3h10 (mouse, UniProt Q8R205 1-435)
T1 sequence (looked up): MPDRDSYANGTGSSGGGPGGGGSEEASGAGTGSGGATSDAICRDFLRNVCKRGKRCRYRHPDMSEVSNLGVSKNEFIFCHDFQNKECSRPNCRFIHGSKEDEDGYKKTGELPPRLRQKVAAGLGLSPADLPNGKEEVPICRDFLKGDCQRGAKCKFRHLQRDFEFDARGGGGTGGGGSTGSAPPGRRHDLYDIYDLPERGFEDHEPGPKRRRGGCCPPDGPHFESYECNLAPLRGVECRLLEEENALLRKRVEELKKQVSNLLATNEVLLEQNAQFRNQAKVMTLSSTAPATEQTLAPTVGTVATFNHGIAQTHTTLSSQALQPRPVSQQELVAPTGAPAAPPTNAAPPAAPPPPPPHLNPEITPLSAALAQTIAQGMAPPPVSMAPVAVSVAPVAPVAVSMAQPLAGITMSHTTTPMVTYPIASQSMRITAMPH
Experiment: cell-based or functional assay

Ucp1 promoter activity, luciferase reporter (−5.5 kb Ucp1-Luc) in HEK293 cells cotransfected with Zc3h10 and Dot1l, against empty vector control (Zc3h10 alone over 3-fold; Dot1l alone no activation): 11 fold
B1: HA-Dot1l (enzyme, mouse, UniProt Q6XZL8 1-1540, looked up)
chain: MGEKLELRLKSPVGAEPAVYPWPLPVYDKHHDAAHEIIETIRWVCEEIPDLKLAMENYVLIDYDTKSFESMQRLCDKYNRAIDSIHQLWKGTTQPMKLNTRPSNGLLRHILQQVYNHSVTDPEKLNNYEPFSPEVYGETSFDLVAQMIDEIKMTEDDLFVDLGSGVGQVVLQVAAATNCKHHYGVEKADIPAKYAETMDREFRKWMKWYGKKHAEYTLERGDFLSEEWRERIANTSVIFVNNFAFGPEVDHQLKERFANMKEGGRIVSSKPFAPLNFRINSRNLSDIGTIMRVVELSPLKGSVSWTGKPVSYYLHTIDRTILENYFSSLKNPKLREEQEAARRRQQRENKSNATTPTKVPESKAAATEAPADSGAEEEKSGVATVKKPSPSKARKKKLNKKGRKMAGRKRGRPKKMSAASAERKSKKSQSTLDLLHSPPPAPPSASPQDAYRAPHSPFYQLPPSTQLHSPNPLLVAPTPPALQKLLESFRIQYLQFLAYTKTPQYKANLQQLLDQEKEKNTQLLGTAQQLFGHCQAQKEEIRRLFQQKLDELGVKALTYNDLIQAQKEISAHNQQLREQSEQLEKDNSELRSQSLRLLRARCEELRLDWSTLSLENLRKEKQALRSQISEKQRHCLELQISIVELEKTQRQQELLQLKSCVPPDDALSLHLRGKGALGRELEADAGRLRLELDCAKISLPHLSSMSPELSMNGHAASYELCNAASRPSSKQNTPQYLASPLDQEVVPCTPSHSGRPRLEKLSGLALPDYTRLSPAKIVLRRHLSQDHTGASKAATSEPHPRPEHPKESSLPYQSPGLSNSMKLSPQDPPLASPATSPLTSEKGSEKGVKERAYSSHGETITSLPVSIPLSTVQPNKLPVSIPLASVVLPSRAERARSTPSPVPQPRDSSATLEKQTGASAHGAGGAGAGSRSLAVAPTGFYAGSVAISGALASSPAPLASGMESAVFDESSGPSSLFATMGSRSTPPQHPPLLSQSRNSGPASPAHQLTASPRLSVTTQGSLPDTSKGELPSDPAFSDPESEAKRRIVFSISVGASSKQSPSTRHSPLTSGTRGDCVQSHGQDSRKRSRRKRASAGTPSLSTGVSPKRRALPTVAGLFTQSSGSPLNLNSMVSNINQPLEITAISSPESSLKSSPTPYQDHDQPPVLRKERPLGLTNGAHYSPLTSDEEPGSEDEPSSARIERKIATISLESKSPPKTLENGGGLVGRKSAPSSEPINSSKWKSTFSPISDLGLAKAVDSPLQAGSALSHSPLFSFRPSLEEPAAEAKLPTHPRKSFAGSLGAAEGPSPGTNPPNGLAFSGGLAADLGLHSFNDGASLSHKGPDVTGLSASLSFPSQRGKDSTTEANPFLSRRQPEGLGGLKGEGNANKESGESLPLCGPSDKASLPHGSRASKGRDRELDFKGGHNLFISAAAVPPGGLLGGPGLVTVASSAGSATPTAQAPRPFLSTFAPGPQFTLGPMSLQANLGSVAGSSVLQSLFSTVPAAAGLVHVSSTATRLTNSHTMGSFSSGVAGGTVGGN
